# Results as given in patent publication US20230192860A1 (Bristol-Myers Squibb, published 2023).
# Numbering of substitutions follows the chain as printed. Names and notes keep the numbering of the source.
# B1: P1-061520 (41F11 VK_A64G) (antibody, V domains shown)
# VH: QVQLVESGGGLVKPGGSLRLSCAASGFTFSDYYMSWIRQAPGKGLEWVSYISNSGSPIYYADSVKGRFTISRDNAKNSLYLQMNSLRAEDTAVYYCARDLPGWYFDLWGRGTLVTVSS
# VL: EIVLTQSPATLSLSPGERATLSCRASQSVSSYLAWYQQKPGQAPRLLIYDASNRATGIPARFSGSGSGTDFTLTISSLEPEDFAVYYCQQRNNWPRTFGQGTKVEIK
# notes: also called P1-061520-21; VISTA.4.A64G
# B2: P1-070976 (41F11_VH_T28P_Y50W_S55E_D95H_L96E_P97E_Y100E; Vk_A64G) (antibody, V domains shown)
# VH: B1 VH with T28P, Y50W, S56E, D99H, L100E, P101E, Y104E
# VL: B1 VL
# notes: They look like Kabat positions on the mature VH, but no numbering scheme is stated; also called P1-070976-11
# B3: P1-070906 (P1-068767_D52N) (antibody, human IgG1, kappa, V domains shown)
# VH: EVQLVESGGGLVQPGKSLRLSCAASGFTLEDYAMHWVRQAPGKGLEWVSGINWNSENIGYADSVKGRFTISRDNAKNSLYLQMNSLRTEDTALYYCAKVPGYSGGWIDAEDDWGQGTMVTVSS
# VL: not shown
# notes: also called P1-070906-6
# B4: P1-070914 (P1-068767_E30D_D52N) (antibody, human IgG1, kappa, V domains shown)
# VH: B3 VH with E30D
# VL: not shown
# notes: also called P1-070914-3
# B5: P1-070922 (P1-068767_E30D_E55A) (antibody, human IgG1, kappa, V domains shown)
# VH: B3 VH with E30D, N52D, E56A
# VL: not shown
# notes: also called P1-070922-3
# B6: P1-070908 (P1-068767_E55A) (antibody, human IgG1, kappa, V domains shown)
# VH: B3 VH with N52D, E56A
# VL: not shown
# notes: also called P1-070908-6
# B7: P1-070916 (P1-068767_D52N_E55A) (antibody, human IgG1, kappa, V domains shown)
# VH: B3 VH with E56A
# VL: not shown
# notes: also called P1-070916-6
# B8: P1-061015 (antibody, human IgG1, kappa, V domains shown)
# VH: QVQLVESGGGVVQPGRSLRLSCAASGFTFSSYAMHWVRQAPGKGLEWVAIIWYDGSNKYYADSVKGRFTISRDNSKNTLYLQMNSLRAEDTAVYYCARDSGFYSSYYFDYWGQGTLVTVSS
# VL: EIVLTQSPATLSLSPGERATLSCRASQSVSSSYLAWYQQKPGQAPRLLIYDASNRATGIPARFSGSGSGTDFTLTISSLEPEDFATYYCQQYNSYPYTFGQGTKLEIKR
# notes: also called P1-061015.IgG1.3
# B9: P1-068744 (antibody, human IgG1, kappa, V domains shown)
# VH: QVQLVESGGGVVQPGRSLRLSCAASGFTFSEYAMHWVRQAPGKGLEWVAHIWYDGSNKYEADSVKGRFTISRDNSKNTLYLQMNSLRAEDTAVYYCARDSGFYESYYFDEWGQGTLVTVSS
# VL: B8 VL
# notes: also called P1-068744-7
# B10: P1-068748 (antibody, human IgG1, kappa, V domains shown)
# VH: B9 VH with E31H, Y32H, H50I, K58D, Y59D, E60Y, E104D, E110Y
# VL: B8 VL
# notes: also called P1-068748-6
# B11: P1-077875 (P1-068748 H31S H32Y) (antibody, V domains shown)
# VH: B9 VH with E31S, H50I, K58D, Y59D, E60Y, E104D, E110Y
# VL: EIVLTQSPATLSLSPGERATLSCRASQSVSSSYLAWYQQKPGQAPRLLIYDASNRATGIPARFSGSGSGTDFTLTISSLEPEDFATYYCQQYNSYPYTFGQGTKLEIK
# B12: P1-077883 (P1-068748 H31S D57K) (antibody, V domains shown)
# VH: B9 VH with E31S, Y32H, H50I, Y59D, E60Y, E104D, E110Y
# VL: B11 VL
# B13: P1-077869 (P1-068748 D57K) (antibody, V domains shown)
# VH: B9 VH with E31H, Y32H, H50I, Y59D, E60Y, E104D, E110Y
# VL: B11 VL
# B14: P1-077865 (P1-068748 H31S) (antibody, V domains shown)
# VH: B9 VH with E31S, Y32H, H50I, K58D, Y59D, E60Y, E104D, E110Y
# VL: B11 VL
# B15: P1-077877 (P1-068748 H32Y D57K) (antibody, V domains shown)
# VH: B9 VH with E31H, H50I, Y59D, E60Y, E104D, E110Y
# VL: B11 VL
# notes: the sister clones carry the VL of P1-061015
# B16: P1-077867 (P1-068748 H32Y) (antibody, V domains shown)
# VH: B9 VH with E31H, H50I, K58D, Y59D, E60Y, E104D, E110Y
# VL: B11 VL
# Target: T1, hVISTA-ECD 6-His tag (human, UniProt Q9H7M9 33-193)
# T1 construct: also called monovalent hVISTA-ECD; human VISTA
# Experiment: SPR; KD at pH 6.9 over KD at pH 6.0 (head prints 7.4)
# Protocol: (§1) Further binding kinetic experiments were performed at various pHs on VISTA antibodies described herein by SPR as generally described in Example 9 above. Antibodies were normalized to 50 nM concentration in PBST pH 7.4 and captured on a Protein A CM5 chip (ID 4931) by injecting for 45 seconds at a 5 µL/min flow rate. An 8-point human VISTA titration ([…]) was prepared in PBST at pH 7.4, 6.9, 6.45, and 6.0. Titrations were injected over the captured antibodies for 180 seconds at 30 µL/min. Sensorgrams were fit to a 1:1 binding model in T200 evaluation software and the kinetic constants were reported.
# (§2) Each table reports the data at one of the four tested pHs (7.4, 6.9, 6.45, and 6.0, respectively). The 8-point hVISTA titration used in these assays was chosen to provide increased confidence in kinetic values reported at neutral pH conditions. A relatively stringent cutoff for non-binding was applied in this assay. Certain progeny of P1-061029 antibody (P1-068757, ‘759, ‘765, ‘771, and ‘775) show no binding to hVISTA at micromolar concentrations at pH 7.4, while ‘761 and ‘767 show no binding to hVISTA at 100 nM at pH 7.4 but do show binding to hVISTA at micromolar concentrations.
# T1 sequence (Q9H7M9 other isoform, or with tags, fused parts or gaps limits assumed): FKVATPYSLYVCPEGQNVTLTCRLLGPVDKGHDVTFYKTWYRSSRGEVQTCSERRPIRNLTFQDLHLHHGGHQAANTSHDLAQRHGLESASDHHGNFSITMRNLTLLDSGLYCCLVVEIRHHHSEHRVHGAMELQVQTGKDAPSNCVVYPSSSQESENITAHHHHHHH
row,7.4 KD/ 6.0 KD,Binder
1,0.1,B1
2,98.2,B2
3,36.5,B3
4,21.1,B4
5,45.9,B5
6,23,B6
7,35.1,B7
8,5.1,B8
9,958,B9
10,50,B10

# Target: T1, hVISTA-ECD 6-His tag
# Experiment: SPR 37 C, Ab on Protein A, pH 7.4
Kd [nM],koff [s⁻¹],kon [M⁻¹ s⁻¹],Binder
6.4,0.0022,340000,B8
1100,0.036,35000,B9

# Target: T1, hVISTA-ECD 6-His tag
# Experiment: SPR, Ab on Protein A, hVISTA analyte, pH 6.9
# Protocol: as §1, §2
Kd [nM],koff [s⁻¹],kon [M⁻¹ s⁻¹],Binder
2.15,0.00139,646000,B1
970,0.01,11000,B2
220,0.0084,38000,B3
230,0.011,48000,B4
790,0.014,18000,B5
240,0.012,51000,B6
230,0.0093,41000,B7
3.19,0.00133,417000,B8
4800,0.034,7100,B9
220,0.018,82000,B10

# Target: T1, hVISTA-ECD 6-His tag
# Experiment: SPR; kd at pH 6.45 over kd at pH 6.0 (head prints 7.4)
# Protocol: as §1, §2
row,7.4 kd/ 6.0 kd,Binder
1,0.2,B1
2,1.7,B2
3,2.1,B3
4,2,B4
5,1.7,B5
6,2.2,B6
7,2.1,B7
8,1,B8
9,3.2,B9
10,3.4,B10

# Target: T1, hVISTA-ECD 6-His tag
# Experiment: SPR; KD at pH 6.45 over KD at pH 6.0 (head prints 7.4)
row,7.4 KD/ 6.0 KD,Binder
1,0.3,B1
2,4.4,B2
3,5.1,B3
4,4.3,B4
5,4.4,B5
6,5.2,B6
7,5.4,B7
8,2.9,B8
9,12.6,B9
10,4.1,B10

# Target: T1, hVISTA-ECD 6-His tag
# Experiment: SPR, Ab on Protein A, hVISTA analyte, pH 6.0
Kd [nM],koff [s⁻¹],kon [M⁻¹ s⁻¹],Binder
16.8,0.0323,1.93e+06,B1
9.9,0.0023,240000,B2
6,0.0019,310000,B3
11,0.0024,230000,B4
17,0.004,230000,B5
10,0.0028,270000,B6
6.5,0.0019,300000,B7
0.622,0.00154,2.47e+06,B8
5.1,0.0043,860000,B9
4.3,0.0036,840000,B10

# Target: T1, hVISTA-ECD 6-His tag
# Experiment: SPR, Ab on Protein A, hVISTA analyte, pH 6.45
Kd [nM],koff [s⁻¹],kon [M⁻¹ s⁻¹],Binder
5.69,0.00554,975000,B1
44,0.0039,90000,B2
31,0.0039,130000,B3
46,0.0049,110000,B4
76,0.007,93000,B5
54,0.006,110000,B6
35,0.004,120000,B7
1.83,0.00147,803000,B8
64,0.014,220000,B9
18,0.012,680000,B10

# Target: T2, monovalent hVISTA-ECD (amino acids 32-193 of SEQ ID NO: 1 with a 7xHis tail) (human, UniProt Q9H7M9 33-193)
# T2 construct: analyte of the SPR assays; also called huVISTA-His; human VISTA-ECD
# Experiment: SPR 37C, Ab on Protein A, pH 6.0
# T2 sequence (Q9H7M9 other isoform, or with tags, fused parts or gaps limits assumed): as above
row,fold improvement of off-rate against the '748 antibody [fold],Binder
1,≤ 2,B11
2,≤ 2,B12
3,≤ 2,B13
4,≤ 2,B14
5,≤ 2,B15
6,≤ 2,B16

# Target: T1, hVISTA-ECD 6-His tag
# Experiment: SPR; kd at pH 6.9 over kd at pH 6.0 (head prints 7.4)
# Protocol: as §1, §2
row,7.4 kd/ 6.0 kd,Binder
1,0,B1
2,4.4,B2
3,4.4,B3
4,4.4,B4
5,3.4,B5
6,4.4,B6
7,4.8,B7
8,0.9,B8
9,7.9,B9
10,4.8,B10

# Target: T1, hVISTA-ECD 6-His tag
# Experiment: SPR 37 C, Ab on Protein A, pH 6.0
Kd [nM],koff [s⁻¹],kon [M⁻¹ s⁻¹],Binder
1.9,0.0016,830000,B8
20,0.0046,230000,B9
